# Assay results taken from paper PMC12867984, “Functional assessment of protein variants in structured domains by fluorescence cross-correlation spectroscopy” (Scientific Reports, 2026).
# What was measured:
# mCherry-RBBP8 [1] = biological target: T1, mCherry-RBBP8 (UniProt Q99708 1-897); test: fluorescence cross-correlation spectroscopy (FCCS); lysate of co-transfected HeLa cells; 20 mM Tris-HCl pH 7.5, 140 mM KCl, 1.5 mM MgCl2, 1 mM DTT, 0.5% NP-40; lysed at room temperature; cross-correlation/autocorrelation ratio; settings: partners not purified
# T1 construct: also called mCherry-RBBP8/CtIP; CtIP; source: HeLa, transfected, in live cells and in lysate
# mCherry-RBBP8 [2] = biological target: T1, mCherry-RBBP8; test: fluorescence cross-correlation spectroscopy (FCCS); GFP- and mCherry-tagged proteins co-expressed in live HeLa cells; focal volume in the nucleoplasm (MSH2-MSH6 also in the cytoplasm); room temperature; cross-correlation/autocorrelation ratio; settings: partners not purified
# T1 sequence (Q99708 whole entry): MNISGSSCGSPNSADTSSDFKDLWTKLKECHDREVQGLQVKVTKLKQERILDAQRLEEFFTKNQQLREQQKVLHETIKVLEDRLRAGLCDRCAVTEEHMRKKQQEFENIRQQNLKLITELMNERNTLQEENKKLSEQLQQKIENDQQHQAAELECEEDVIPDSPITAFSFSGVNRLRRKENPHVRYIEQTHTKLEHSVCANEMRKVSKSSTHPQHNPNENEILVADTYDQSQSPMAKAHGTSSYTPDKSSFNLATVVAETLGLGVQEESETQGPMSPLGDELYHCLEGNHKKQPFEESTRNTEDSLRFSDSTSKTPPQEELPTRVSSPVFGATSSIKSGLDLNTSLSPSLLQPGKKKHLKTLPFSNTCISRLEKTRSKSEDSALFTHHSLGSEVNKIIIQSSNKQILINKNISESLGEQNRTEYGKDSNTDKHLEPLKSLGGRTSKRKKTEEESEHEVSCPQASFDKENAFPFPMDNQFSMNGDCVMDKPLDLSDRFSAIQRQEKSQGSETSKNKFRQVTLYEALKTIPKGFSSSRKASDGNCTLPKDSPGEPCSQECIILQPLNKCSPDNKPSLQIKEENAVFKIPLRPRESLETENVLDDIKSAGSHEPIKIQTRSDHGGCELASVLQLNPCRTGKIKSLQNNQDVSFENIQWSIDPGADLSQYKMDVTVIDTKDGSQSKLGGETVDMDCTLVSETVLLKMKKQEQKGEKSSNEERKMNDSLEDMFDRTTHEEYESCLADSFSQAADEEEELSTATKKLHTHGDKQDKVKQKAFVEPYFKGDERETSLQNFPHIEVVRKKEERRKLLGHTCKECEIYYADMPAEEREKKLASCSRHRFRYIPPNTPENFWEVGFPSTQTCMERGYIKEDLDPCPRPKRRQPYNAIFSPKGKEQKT
cross-correlation (mCherry-RBBP8 [1]),reduction in binding relative to wild type (mCherry-RBBP8 [2]),Binder
17%,,"GFP-BRCT (isolated BRCA1 BRCT domain, wild-type) (domain or fragment, UniProt P38398 1650-1863, looked up, BRCA1 amino acids 1650-1864 cloned into pEGFP-C1; the printed limit 1864 may count the stop codon; also called EGFP-tagged BRCT trimmed domain; source: HeLa, transfected, in lysate) MSMVVSGLTPEEFMLVYKFARKHHITLTNLITEETTHVVMKTDAEFVCERTLKYFLGIAGGKWVVSYFWVTQSIKERKMLNEHDFEVRGDVVNGRNHQGPKRARESQDRKIFRGLEICCYGPFTNMPTDQLEWMVQLCGASVVKELSSFTLGTGVHPIVVVQPDAWTEDNGFHAIGQMCEAPVVTREWVLDSVALYQCQELDTYLIPQIPHSHY"
,~50%,"GFP-BRCA1 p.Thr1684Ala (natural protein, UniProt P38398 1-1863, looked up, also called T1684A; source: HeLa, transfected, in live cells) MDLSALRVEEVQNVINAMQKILECPICLELIKEPVSTKCDHIFCKFCMLKLLNQKKGPSQCPLCKNDITKRSLQESTRFSQLVEELLKIICAFQLDTGLEYANSYNFAKKENNSPEHLKDEVSIIQSMGYRNRAKRLLQSEPENPSLQETSLSVQLSNLGTVRTLRTKQRIQPQKTSVYIELGSDSSEDTVNKATYCSVGDQELLQITPQGTRDEISLDSAKKAACEFSETDVTNTEHHQPSNNDLNTTEKRAAERHPEKYQGSSVSNLHVEPCGTNTHASSLQHENSSLLLTKDRMNVEKAEFCNKSKQPGLARSQHNRWAGSKETCNDRRTPSTEKKVDLNADPLCERKEWNKQKLPCSENPRDTEDVPWITLNSSIQKVNEWFSRSDELLGSDDSHDGESESNAKVADVLDVLNEVDEYSGSSEKIDLLASDPHEALICKSERVHSKSVESNIEDKIFGKTYRKKASLPNLSHVTENLIIGAFVTEPQIIQERPLTNKLKRKRRPTSGLHPEDFIKKADLAVQKTPEMINQGTNQTEQNGQVMNITNSGHENKTKGDSIQNEKNPNPIESLEKESAFKTKAEPISSSISNMELELNIHNSKAPKKNRLRRKSSTRHIHALELVVSRNLSPPNCTELQIDSCSSSEEIKKKKYNQMPVRHSRNLQLMEGKEPATGAKKSNKPNEQTSKRHDSDTFPELKLTNAPGSFTKCSNTSELKEFVNPSLPREEKEEKLETVKVSNNAEDPKDLMLSGERVLQTERSVESSSISLVPGTDYGTQESISLLEVSTLGKAKTEPNKCVSQCAAFENPKGLIHGCSKDNRNDTEGFKYPLGHEVNHSRETSIEMEESELDAQYLQNTFKVSKRQSFAPFSNPGNAEEECATFSAHSGSLKKQSPKVTFECEQKEENQGKNESNIKPVQTVNITAGFPVVGQKDKPVDNAKCSIKGGSRFCLSSQFRGNETGLITPNKHGLLQNPYRIPPLFPIKSFVKTKCKKNLLEENFEEHSMSPEREMGNENIPSTVSTISRNNIRENVFKEASSSNINEVGSSTNEVGSSINEIGSSDENIQAELGRNRGPKLNAMLRLGVLQPEVYKQSLPGSNCKHPEIKKQEYEEVVQTVNTDFSPYLISDNLEQPMGSSHASQVCSETPDDLLDDGEIKEDTSFAENDIKESSAVFSKSVQKGELSRSPSPFTHTHLAQGYRRGAKKLESSEENLSSEDEELPCFQHLLFGKVNNIPSQSTRHSTVATECLSKNTEENLLSLKNSLNDCSNQVILAKASQEHHLSEETKCSASLFSSQCSELEDLTANTNTQDPFLIGSSKQMRHQSESQGVGLSDKELVSDDEERGTGLEENNQEEQSMDSNLGEAASGCESETSVSEDCSGLSSQSDILTTQQRDTMQHNLIKLQQEMAELEAVLEQHGSQPSNSYPSIISDSSALEDLRNPEQSTSEKAVLTSQKSSEYPISQNPEGLSADKFEVSADSSTSKNKEPGVERSSPSKCPSLDDRWYMHSCSGSLQNRNYPSQEELIKVVDVEEQQLEESGPHDLTETSYLPRQDLEGTPYLESGISLFSDDPESDPSEDRAPESARVGNIPSSTSALKVPQLKVAESAQSPAAAHTTDTAGYNAMEESVSREKPELTASTERVNKRMSMVVSGLTPEEFMLVYKFARKHHITLTNLITEEATHVVMKTDAEFVCERTLKYFLGIAGGKWVVSYFWVTQSIKERKMLNEHDFEVRGDVVNGRNHQGPKRARESQDRKIFRGLEICCYGPFTNMPTDQLEWMVQLCGASVVKELSSFTLGTGVHPIVVVQPDAWTEDNGFHAIGQMCEAPVVTREWVLDSVALYQCQELDTYLIPQIPHSHY"
